Data on 21 molecules can be found in patent publication US20220017589A1 (BEIJING QL BIOPHARMACEUTICAL, published 2022).

Positions count from the first letter of the chain named.

The labels stand for the following.
T1: human GFRAL (human, UniProt Q6UXV0 19-394)
T1 sequence (looked up): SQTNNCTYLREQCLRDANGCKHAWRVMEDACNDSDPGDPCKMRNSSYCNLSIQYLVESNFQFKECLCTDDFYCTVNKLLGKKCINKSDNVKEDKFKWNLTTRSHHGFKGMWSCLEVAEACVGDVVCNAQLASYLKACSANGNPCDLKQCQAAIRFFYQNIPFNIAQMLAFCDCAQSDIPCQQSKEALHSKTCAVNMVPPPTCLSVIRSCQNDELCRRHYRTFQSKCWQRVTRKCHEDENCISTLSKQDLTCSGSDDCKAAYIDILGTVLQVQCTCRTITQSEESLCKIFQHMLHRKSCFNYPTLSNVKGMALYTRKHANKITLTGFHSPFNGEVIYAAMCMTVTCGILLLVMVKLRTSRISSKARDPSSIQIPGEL

B1: MLC030 (ligand)
chain: HGEGTFTSDVSSYLEEQAAREFIAWLVRGGGGQEPGQEPGQEPGQKPGQEPGQEPGQEPGQEPGAQPGAQPGAQPGAQPGAQPGAQPGAQPGAQPGAQPGAQPGAQPGAQPARQGDHCPLGPGRCCRLHTVRASLEDLGWADWVLSPREVQVTMCIGACPSQFRAANLHAQIKTSLHRLRPDTVPAPCCVPASYNPMVLIQRTDTGVSLQTYDDLLARDCHCI
modifications: Moiety A (HOOC-(CH2)16-CO-gGlu-2XADO) on 15K of Linker (46K of fusion polypeptide)
B2: MLC088 (ligand)
chain: HGEGTFTSDVSSYLEEQAAKEFIAWLVRGGGGAQPGAQPGAQPGAQPGAQPGAQPGAQPGAQPGQEPGAQPCQEPGAQPGQEPGAQPGQEPGAQPGQEPGAQPGQEPGAQPARQGDHCPLGPGRCCRLHTVRASLEDLGWADWVLSPREVQVTMCIGACPSQFRAANLHAQIKTSLHRLKPDTVPAPCCVPASYNPMVLIQKTDTGVSLQTYDDLLAKDCHCI
modifications: Moiety C (HOOC-(CH2)20-CO-gGlu-2XADO-EDA-CO-CH2) on 41C of Linker (72C of fusion polypeptide)
B3: MLC090 (ligand)
chain: B2 chain with A69Q, Q70C, C72G
modifications: Moiety C (HOOC-(CH2)20-CO-gGlu-2XADO-EDA-CO-CH2) on 39C of Linker (70C of fusion polypeptide)
B4: MLC013 (ligand)
chain: HGEGTFTSDVSSYLEEQAAREFIAWLVRGGGKQEPGAQPGQEPGAQPGQEPGAQPGQEPGAQPGQEPGAQPGQEPGAQPGAQPGAQPGAQPGAQPGAQPGAQPGAQPGAQPARQGDHCPLGPGRCCRLHTVRASLEDLGWADWVLSPREVQVTMCIGACPSQFRAANLHAQIKTSLHRLRPDTVPAPCCVPASYNPMVLIQRTDTGVSLQTYDDLLARDCHCI
modifications: Moiety A (HOOC-(CH2)16-CO-gGlu-2XADO) on 1K of Linker (32K of fusion polypeptide)
B5: MLC075 (ligand)
chain: B4 chain with R20K, K32G, G72C, R180K, R202K, R218K
modifications: Moiety C (HOOC-(CH2)20-CO-gGlu-2XADO-EDA-CO-CH2) on 41C of Linker (72C of fusion polypeptide)
B6: MLC084 (ligand)
chain: B4 chain with R20K, K32G, A69Q, Q70C, R180K, R202K, R218K
modifications: Moiety C (HOOC-(CH2)20-CO-gGlu-2XADO-EDA-CO-CH2) on 39C of Linker (70C of fusion polypeptide)
B7: MLC103 (ligand)
chain: B4 chain with K32G, Q102K
modifications: Moiety A (HOOC-(CH2)16-CO-gGlu-2XADO) on 71K of Linker (102K of fusion polypeptide)
B8: MLC086 (ligand)
chain: B4 chain with R20K, K32G, G68C, A69Q, Q70A, R180K, R202K, R218K
modifications: Moiety C (HOOC-(CH2)20-CO-gGlu-2XADO-EDA-CO-CH2) on 37C of Linker (68C of fusion polypeptide)
B9: MLC085 (ligand)
chain: B4 chain with R20K, K32G, G68C, A69Q, Q70A, R180K, R202K, R218K
modifications: Moiety B (HOOC-(CH2)16-CO-gGlu-2XADO-EDA-CO-CH2) on 37C of Linker (68C of fusion polypeptide)
B10: MLC104 (ligand)
chain: B4 chain with K32G, P107K
modifications: Moiety A (HOOC-(CH2)16-CO-gGlu-2XADO) on 76K of Linker (107K of fusion polypeptide)
B11: MLC018 (ligand)
chain: B4 chain with K32G, A81Q, Q82E, P83K, A89Q, Q90E, A97Q, Q98E, A105Q, Q106E
modifications: Moiety A (HOOC-(CH2)16-CO-gGlu-2XADO) on 52K of Linker (83K of fusion polypeptide)
B12: MLC074 (ligand)
chain: B4 chain with R20K, K32G, G72C, R180K, R202K, R218K
modifications: Moiety B (HOOC-(CH2)16-CO-gGlu-2XADO-EDA-CO-CH2) on 41C of Linker (72C of fusion polypeptide)
B13: MLC046 (ligand)
chain: B4 chain with K32G, P91K
modifications: Moiety A (HOOC-(CH2)16-CO-gGlu-2XADO) on 60K of linker (91K of fusion polypeptide)
B14: MLC004 (ligand)
chain: B4 chain with R20K, K32G
modifications: Moiety A (HOOC-(CH2)16-CO-gGlu-2XADO) on 26K of GLP-1 (20K of fusion polypeptide)
B15: MLC083 (ligand)
chain: B4 chain with R20K, K32G, A69Q, Q70C, R180K, R202K, R218K
modifications: Moiety B (HOOC-(CH2)16-CO-gGlu-2XADO-EDA-CO-CH2) on 39C of Linker (70C of fusion polypeptide)
B16: MLC017 (ligand)
chain: B4 chain with K32G, Q86K
modifications: Moiety A (HOOC-(CH2)16-CO-gGlu-2XADO) on 55K of Linker (86K of fusion polypeptide)
B17: MLC047 (ligand)
chain: B4 chain with K32G, P71K
modifications: Moiety A (HOOC-(CH2)16-CO-gGlu-2XADO) on 40K of linker (71K of fusion polypeptide) per Table 2; Table 3 prints 41K of linker
B18: MLC045 (ligand)
chain: B4 chain with Q86K
modifications: Moiety A (HOOC-(CH2)16-CO-gGlu-2XADO) on 1K and 55K of Linker (32K and 86K of fusion polypeptide)
B19: MLC064 (ligand)
chain: B4 chain with K32G, Q82K
modifications: Moiety A (HOOC-(CH2)16-CO-gGlu-2XADO) on 51K of Linker (82K of fusion polypeptide)
B20: MLC016 (ligand)
chain: B4 chain with K32G, P83K
modifications: Moiety A (HOOC-(CH2)16-CO-gGlu-2XADO) on 52K of Linker (83K of fusion polypeptide)
B21: MLC005 (ligand)
chain: HGEGTFTSDVSSYLEEQAAREFIAWLVRGGGGQEPGQEPGQEKGQEPGQEPGQEPGQEPGQEPGAQPGAQPARQGDHCPLGPGRCCRLHTVRASLEDLGWADWVLSPREVQVTMCIGACPSQFRAANLHAQIKTSLHRLRPDTVPAPCCVPASYNPMVLIQRTDTGVSLQTYDDLLARDCHCI
modifications: Moiety A (HOOC-(CH2)16-CO-gGlu-2XADO) on 12K of Linker (43K of fusion polypeptide)

The target in the first experiment is T1, human GFRAL. Briefly: cell-based or functional assay.
For the molecule B1, the “GDF15 activity (EC50, pM)” value was found to be 52.3 pM.

For the molecule B2, the “GDF15 activity (EC50, pM)” value came out at 30.2 pM.

For B3, the “GDF15 activity (EC50, pM)” value worked out at 23.6 pM.

For B4, the “GDF15 activity (EC50, pM)” value stood at 48.8 pM.

For the molecule B5, the “GDF15 activity (EC50, pM)” value turned out to be 48.6 pM.

As to B6, the “GDF15 activity (EC50, pM)” value was 70.5 pM.

B7: the “GDF15 activity (EC50, pM)” value worked out at 79.2 pM.

With B8, the “GDF15 activity (EC50, pM)” value was 32.4 pM.

On to B9, for which the “GDF15 activity (EC50, pM)” value came to 22 pM.

On to B10, for which the “GDF15 activity (EC50, pM)” value came out at 79.4 pM.

Regarding B11, the “GDF15 activity (EC50, pM)” value was determined as 75.5 pM.

As to B12, the “GDF15 activity (EC50, pM)” value came to 41.1 pM.

On to B13, for which the “GDF15 activity (EC50, pM)” value was determined as 78.9 pM.

Turning to B14, the “GDF15 activity (EC50, pM)” value was 17.3 pM.

With B15, the “GDF15 activity (EC50, pM)” value worked out at 52.4 pM.

Take B16: the “GDF15 activity (EC50, pM)” value is 77.6 pM.

For the molecule B17, the “GDF15 activity (EC50, pM)” value is 59.4 pM.

As for B18, the “GDF15 activity (EC50, pM)” value was determined as 114 pM.

For B19, the “GDF15 activity (EC50, pM)” value was found to be 116 pM.

For B20, the “GDF15 activity (EC50, pM)” value came to 110 pM.

As for B21, the “GDF15 activity (EC50, pM)” value worked out at 20.3 pM.

The next experiment addresses human GLP-1 receptor (human, UniProt P43220 24-463). Briefly: cell-based or functional assay.
As for B1, the “GLP-1 activity (EC50, pM)” value is 0.9 pM.

With B2, the “GLP-1 activity (EC50, pM)” value turned out to be 1.6 pM.

Take B3: the “GLP-1 activity (EC50, pM)” value was 1.5 pM.

Take B4: the “GLP-1 activity (EC50, pM)” value was 6.9 pM.

As for B5, the “GLP-1 activity (EC50, pM)” value amounted to 1.3 pM.

For B6, the “GLP-1 activity (EC50, pM)” value was 1.3 pM.

As for B7, the “GLP-1 activity (EC50, pM)” value amounted to 0.89 pM.

For B8, the “GLP-1 activity (EC50, pM)” value came out at 1.1 pM.

For B9, the “GLP-1 activity (EC50, pM)” value worked out at 1.5 pM.

B10: the “GLP-1 activity (EC50, pM)” value amounted to 0.88 pM.

As to B11, the “GLP-1 activity (EC50, pM)” value was determined as 3.3 pM.

In the case of B12, the “GLP-1 activity (EC50, pM)” value was determined as 0.94 pM.

With B13, the “GLP-1 activity (EC50, pM)” value came to 1 pM.

For the molecule B14, the “GLP-1 activity (EC50, pM)” value was found to be 8.3 pM.

For the molecule B15, the “GLP-1 activity (EC50, pM)” value was found to be 1.7 pM.

On to B16, for which the “GLP-1 activity (EC50, pM)” value was found to be 2.8 pM.

For B17, the “GLP-1 activity (EC50, pM)” value stood at 1 pM.

For the molecule B18, the “GLP-1 activity (EC50, pM)” value amounted to 1.2 pM.

Regarding B19, the “GLP-1 activity (EC50, pM)” value was determined as 1.3 pM.

As for B20, the “GLP-1 activity (EC50, pM)” value worked out at 2.5 pM.

Consider B21, for which the “GLP-1 activity (EC50, pM)” value came out at 3 pM.
